Results from article PMC6273323 (2016).
Non-standard residues stand in square brackets, D forms with d. No end group written: not given here. Phe(4-F) = N[C@@H](Cc1ccc(F)cc1)C(=O)O

Biological target: T1, DF*NNN fluorinated iNOS peptide
T1 chain: D[Phe(4-F)]NNN
Assay: SPR

Kd: 3000 nM
B1: SPSB2 (protein)
chain: MGQTALARGSSSTPTSQALYSDFSPPEGLEELLSAPPPDLVAQRHHGWNPKDCSENIDVKEGGLCFERRPVAQSTDGVRGKRGYSRGLHAWEISWPLEQRGTHAVVGVATALAPLQADHYAALLGSNSESWGWDIGRGKLYHQSKGLEAPQYPAGPQGEQLVVPERLLVVLDMEEGTLGYSIGGTYLGPAFRGLKGRTLYPSVSAVWGQCQVRIRYMGERRVEEPQSLLHLSRLCVRHALGDTRLGQISTLPLPPAMKRYLLYK
